Data from the nanobody polyreactivity screen of Harvey et al. (2022).

Experiment: yeast display, Sf9 membrane polyspecificity reagent, FACS + sequencing; frameworks hold sequencing errors
Method in brief: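 In a synthetic yeast display library (Saccharomyces cerevisiae BJ5465), nanobody expression was induced with galactose for 36–48 hours. FACS gates were set low and high (top ~1%) using anti-HA fluorescence for expression and streptavidin fluorescence for binding of the Sf9 membrane reagent. Each polyreactivity label is drawn from the gate of origin.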

Sequence | polyreactivity (PSR sort gate)
QVQLVESGGGLVQAGGSLRLSCAASGSTFPVYAMGWYRQAPGKERELVAAISRSGASTYYAASVKGRFTISRDNAKNTVDLQMNSLKPDDTAVYYCARGYQGRLKYEYWGQGTQVTVSS | low polyreactivity
QVQLVESGGGLVQAGGSLRLSCAASGSTFPVYAMGWYRQAPGKERELVASISSGGSTYYADSVKGRFTISRDNAKNTVYLQMNSLKPEDTAVYYCAKDPWVESFVIYDYWGQGTQVTVSS | low polyreactivity
QVQLVESGGGLVQAGGSLRLSCAASGSTFPVYAMGWYRQAPGKERELVATISYSGGSTNYADSVKGRFTISRDNAKNTVYLQMNSLKPEDTAVYYCAKRYKRYVYWRSHGDYNYWGQGTQVTVSS | high polyreactivity
QVQLVESGGGLVQAGGSLRLSCAASGSTFPVYTLGWYRQAPGKERELVAAISWRGTSTYADSVKGRFTISRDNGKNNVYLQMNRLIPEDTAVYYCAAGDTRGMDYWGQGTQVTVSS | high polyreactivity
QVQLVESGGGLVQAGGSLRLSCAASGSTFPVYVMGWYRQAPGKERELVAAITRIGGSTYYADSVKGRFTISRDNAKNTVYLQMNSLKPEDTAVYYCAAGGTARDDSWGQGTQVTVSS | low polyreactivity
QVQLVESGGGLVQAGGSLRLSCAASGSTFPWNAMGWYRQAPGKERELDAAIRTGGGRTYYADSVKGRFTISRDNAKNTVYLQMNSLKPEDTAVYYCNAYQSSGRYRNSYGYWGQGTQVTVSS | high polyreactivity
QVQLVESGGGLVQAGGSLRLSCAASGSTFPWYAMVWYRQAPGKERELVAAIRWRGGSTYYADSVKGRFTISRDNAKNTVYLQMNSLKPEDTAVYYCAADPTYLRTLRFGSYDYWGQGTQVTVSS | high polyreactivity
QVQLVESGGGLVQAGGSLRLSCAASGSTFPYAMGWYTQAPGKEREFVAAITRSGGSTYYADSVKGRFTISRDNAKNTVYLQMNSLKPEDTAVYYATQRCVWGYHYWGQGTQVTVSS | high polyreactivity
QVQLVESGGGLVQAGGSLRLSCAASGSTFPYNAMGWYRQAPGKERELVAAITSDDTTNYADSVKGRFTISRDNAKNTVYLQMNSLKPEDTAVYYCAAEYRYPYLRGAGDYWGQGTQVTVSS | low polyreactivity
QVQLVESGGGLVQAGGSLRLSCAASGSTFPYNAMGWYRQAPGKERELVAAITSSGRTNYADSVKGRFTISRDNAKNTDYLQMNSLKPEDTAVYYCAAVRWYAHRVDYWGQGTQVTVSS | low polyreactivity
QVQLVESGGGLVQAGGSLRLSCAASGSTFPYNTMGWYRQAPGKEREFVAAITGDGGTTYYADSVKGRFTISRDNAKNTVYLQMNSLKPEDTAVYYCAVPYPAEGYGGDYWGQGSQVTVSS | low polyreactivity
QVQLVESGGGLVQAGGSLRLSCAASGSTFPYNVMGWYRPAPGKERELVAAISYSGGNTYYADSVKGRFTISRDNAKNTVYLQMNSLKPEDTAVYYCAKARRGGRGSIKYDYWGQGTQVTVSS | high polyreactivity
QVQLVESGGGLVQAGGSLRLSCAASGSTFPYPYTMGWYRQAPGKERELVAVISRTGGSTFYADSVKGRFTISRDNAKNTVYLQMNSLKPEDTAVYYCAARYAVGAHYDYWGQGTQVTVSS | high polyreactivity
QVQLVESGGGLVQAGGSLRLSCAASGSTFPYYAMGWYRQAPGKEMELVASIRKRGGGTYYADSVKGRFTISRDNAKNTVYLQMNSLKPEDTAVYYCAVRVYQFRYTGYDYWGQGTQVTVSS | high polyreactivity
QVQLVESGGGLVQAGGSLRLSCAASGSTFPYYAMGWYRQAPGKEREFVAAISYRGGSTYYADSVKGRFTISRDNAKNTVYLQMNSLKPEDTAVYYCAARSWQDRYANGYNYWGQGTQVTVSS | high polyreactivity
QVQLVESGGGLVQAGGSLRLSCAASGSTFPYYAMGWYRQAPGKERELVAAITSGGSTNYADSVKGRFTISRDNAKNTVYLQMNSLKPEDTAVYYCNADTTYLSDYVTFDYWGQGTQVTVSS | low polyreactivity
QVQLVESGGGLVQAGGSLRLSCAASGSTFPYYARGWYRQAPGKERELVAAITSGGSTNYADSVKGRFTISRDNAKNTVYLQMNSLKPEDTAVYYCAARLRYTTVIYYYWGQGTQVTVSS | high polyreactivity
